Laboratory results from article PMC10746540.

B1: PYR1*^MANDI, pBD two-hybrid fusion [not stated] / HAB1*, pACT two-hybrid fusion [not stated] (parent)
chain 1: MPSELTPEERSELKNSIAEFHTYQLDPGSCSSLHAQRIHAPPELVWSIVRRFDKPQTHRHFIKSCSVEQNFEMRVGCTRDIIVISGLPANTSTERLDILDDERRVTGASIIGGEHRLTNYKGVTTVHRFEKENRIWTVVLESYVVDMPEGNSEDDTRIVVDDVVKLNLQKLATVAEAMARNSGDGSGSQVT
chain 2: MEEMTPAVAMTLSLAANTMCESSPVEITQLKNVTDAADLLSDSENQSFCNGGTECTMEDVSELEEVGEQDLLKTLSDTRSGSSNVFDEDDVLSVVEDNSAVISEGLLVVDAGSELSLSNTAMEIDNGRVLATAIIVGESSIEQVPTAEVLIAGVNQDTNTSEVVIRLPDENSNHLVKGRSVYELDCIPLWGTVSIQGNASEMEAAFAVSPHFLKLPIKMLMGDHEGMSPSLTHLTGHFFGVYDGHGGHKVADYCRDRLHFALAEEIERIKDELCKRNTGEGRQVQWDKVFTSCFLTVDGEIEGKIGRAVVGSSDKVLEAVADETVGSTAVVALVCSSHIVVSNCGDSRAVLFRGKEAMPLSVDHKPDREDEYARIENAGGKVIQWQGARVFGRLAMSRSIGDRYLKPYVIPEPEVTFMPRSREDECLILASDGLWDVMNNQEVCEIARRRILMWHKKNGAPPLAERGKGIDPACQAAADYLSMLALQKGSKDNISIIVIDLKAQAKFKTRT

Variants of: B1
Experiment: β-gal-based Y2H assay
Settings: with HAB1*, ligand: malathion

screen value [µM]	Variant
100	chain 1 V83A

Same assay, conditions: with HAB1*, ligand: chlorofenvinphos

screen value [µM]	Variant
12.5	chain 1 G122Q

Same assay, conditions: with HAB1*, ligand: azinphos

screen value [µM]	Variant
10	chain 1 V83W R116S

Same assay, conditions: with HAB1*, ligand: azinphos-ethyl

screen value [µM]	Variant
0.01	chain 1 V83W R116S
0.25	chain 1 V83W I110Y R116S
0.01	chain 1 V83W I110Y R116S V164Y

Same assay, conditions: with HAB1*, ligand: disulfoton

screen value [µM]	Variant
100	chain 1 M147V

Same assay, conditions: with HAB1*, ligand: pirimiphos

screen value [µM]	Variant
25	chain 1 S92M

Same assay, conditions: with HAB1*, ligand: diazinon

screen value [µM]	Variant
100	chain 1 A108V
